B1: CFP-OsUVR8a (in transgenic rice) (natural protein)
chain: MHSTGMEMEVEVAGDDEAVPEAPERSVVLISAGASHSVALLSGGVVCSWGRGEDGQLGHGDAEDRPVPTVLTAAFDDAPGGVASVVICGADHTTAYSDEELQLYSWGWGDFGRLGHGNSSDVFNPQPIQALQGVRITQIACGDSHCLAVTVAGHVHSWGRNQNGQLGLGNTEDSLLPQKIQAFEGVRVKMIAAGAEHTAAVTEDGDLYGWGWGRYGNLGLGDRDDRLIPEKVSSVNGQKMVLVACGWRHTITVSSSGSIYTYGWSKYGQLGHGDFEDHLVPHKLEALKDTTISQISGGWRHTMALAADGKLYGWGWNKFGQVGVGDNEDHCSPVQVNFPNEQKVVQVACGWRHTLALTEAKNVFSWGRGTSGQLGHGEIVDRNIPKMIDALSSDGSACKQLESSKAVPMSAKVWVSPSERYAIVPDEKAGKGIPAGNGTETHVPQGDVKRMRV
B2: CFP-OsUVR8b (in transgenic rice) (natural protein)
chain: MDAVMSAADDAGAASGREDPPPAVVLVSAGASHSVALLAGNVLCSWGRGEDGQLGHGDAEDRLVPTVLSGFDAAAPGITSVICGADHTTAYSEDEQQVYSWGWGDFGRLGHGNSSDVFTPQPVKALQGIKIKQIACGDSHCLAVTMAGEVQSWGRNQNGQLGLGTTEDSLLPQKIQSFEGVCVKMIAAGAEHTAAVTEDGDLYGWGWGRYGNLGLGDRNDRLVPEKVSSVEGEKMVLIACGWRHTITVSSSGSLYTYGWSKYGQLGHGDFEDHLVPHKLEALKDSSISQISGGWRHTMALTSDGKLYGWGWNKFGQVGVGDTDDHCFPVQVKFPEDQKVAQVACGWRHTLAFTEKKNVFSWGRGTSGQLGHGEIVDRNKPVMIDALSPDGPGCKKLEPSTAVPFAAKVWVSPSERYAIVPDEKVPNSGEGTARGNGADANVPENDVKRMRVHS

Key:
Experiment in all cases: SDS-PAGE without heat denaturation and immunoblot
[1] = molecular target: CFP-OsUVR8a (in transgenic Arabidopsis uvr8-6) (rice (Oryza sativa))
[2] = molecular target: CFP-OsUVR8b (in transgenic Arabidopsis uvr8-6) (rice (Oryza sativa))
[3] = molecular target: the molecule itself

| Molecule | stoichiometry N [3] | other results |
| --- | --- | --- |
| CFP-OsUVR8a (in transgenic Arabidopsis uvr8-6) (natural protein) |  | stoichiometry N [1]: 2 |
| CFP-OsUVR8b (in transgenic Arabidopsis uvr8-6) (natural protein) |  | stoichiometry N [2]: 2 |
| B1 | 2 |  |
| B2 | 2 |  |

Reference: PMC11289442 (Nature Communications, 2024)
